Test results from patent publication US20220249692A1 (BIOSCEPTRE AUST, published 2022).

Biological target: T1, E200 epitope of P2X7R
T1 peptide: GHNYTTNILPGLNITC
Experiment: ELISA, antibody-conjugated liposomes on E200 epitope

binding result: binds
B1: single domain antibody (variable domain of SEQ ID NO: 7) conjugated to gemcitabine liposome nanoparticles (VHH)
VHH: EVQLLESGGGLVQPGGSLRLSCAASGFTFRNHDMGWVRQAPGKGLEWVSAISGSGGSTYYANSVKGRFTISRDNSKNTLYLQMNSLRAEDTAVYYCAEPKPMDTEFDYRSPGTLVTVSS
modifications: activated via Traut's reagent (thiolated) and conjugated to maleimide groups of Maleimido-Succinyl-PEG4000-Oleate on the liposome
notes: also called BIL03s; BIL03s-coated nanoparticles
